Fewer inactive variants are shown than the library holds.
B1: TPR 5TU (parent)
chain: GGAUCUUCUCGAUCUAACAAAAAAGACAAAUCUGCCACAAAGCUUGAGAGCAUCUUCGGAUGCAGAGGCGGCAGCCUUCGGUGGCGCGAUAGCGCCAACGUUCUCAACUAUGACACGCAAAACGCGUGCUCCGUUGAAUGGAGUUUAUCAUG

Variants of: B1
Assay: polymerase ribozyme fitness, log enrichment relative to wild type (log ratio); higher = more active; in vitro selection for triplet polymerase activity
In short: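 For each subunit of a heterodimeric triplet polymerase ribozyme, a mutant library was built by PCR and transcribed, then taken through a single in vitro selection round in triplicate. Selection involved annealing to a biotinylated primer, the partner subunit and triplets, incubation frozen at −7 °C, gel excision of extended constructs, capture on streptavidin beads and RT-PCR. Genotypes were retained after Illumina sequencing of inputs and outputs only with ≥10 input reads and ≥1 read in each output. Fitness is defined as the logarithm of a genotype's enrichment relative to wild-type enrichment, using inverse-variance-weighted averages across replicates, with the logarithm taken to base 2.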

Going from G83C U146A to G59C G74A G80C U127G A142G, the “polymerase ribozyme fitness (log ratio)” value falls from -0.565 to ≤ -4.2.

Going from G141A C149G to U4A C5G C8G U9G U53A C54A C72A C79A C85U A115C U139A G140C, the “polymerase ribozyme fitness (log ratio)” value falls from -4.13 to ≤ -4.2.

First: C118U U148G
Second: G94A U148A
The “polymerase ribozyme fitness (log ratio)” value of the first is lower: -3.62 for the first, -3.08 for the second.

A49C G68A C96U A98C C108G and C35A U53A U61A G62C A64G A66C C87G G152U cannot be ordered by “polymerase ribozyme fitness (log ratio)” value: ≤ -4.2 for the first, ≤ -4.2 for the second.

First: A39C A47C G62A C85U A98U U134A
Second: A21U G83C
The “polymerase ribozyme fitness (log ratio)” value of the first is lower: ≤ -4.2 for the first, -1.57 for the second.

First: U31A C125A
Second: C85U G136U G152C
The “polymerase ribozyme fitness (log ratio)” value of the first is higher: 0.0765 for the first, ≤ -4.2 for the second.

First: G71U G83U
Second: U56A G136A
The “polymerase ribozyme fitness (log ratio)” value of the first is lower: -3.48 for the first, -0.463 for the second.

U9A G59A A60C C93U and U53A G80U C96A G143A U146C C149G cannot be ordered by “polymerase ribozyme fitness (log ratio)” value: ≤ -4.2 for the first, ≤ -4.2 for the second.

A23U C35A A41C U55G G86C C95G C105A and A24U A30C C93G C118A cannot be ordered by “polymerase ribozyme fitness (log ratio)” value: ≤ -4.2 for the first, ≤ -4.2 for the second.

C108U C132A U139A and G25A G48U U61G C96A A97G C132G cannot be ordered by “polymerase ribozyme fitness (log ratio)” value: ≤ -4.2 for the first, ≤ -4.2 for the second.

First: G81U C95U
Second: A52C G70A U90G A106U
The “polymerase ribozyme fitness (log ratio)” value of the first is higher: -1.63 for the first, ≤ -4.2 for the second.

G42C U56G C114U U127A A138C and G11A C38U G59C A64U G81A C93U G94C cannot be ordered by “polymerase ribozyme fitness (log ratio)” value: ≤ -4.2 for the first, ≤ -4.2 for the second.

First: G83U C105G A107G U135G G152C
Second: A3G A20C U53A G81C A121G
The “polymerase ribozyme fitness (log ratio)” value of the first is lower: ≤ -4.2 for the first, -1.59 for the second.

Going from A20G G25A A40U A47G G48C C85A A142G to A24G A30U U31C U101G, the “polymerase ribozyme fitness (log ratio)” value rises from ≤ -4.2 to -3.98.

A3U A23U C96U and A3C A97U U135G G140C cannot be ordered by “polymerase ribozyme fitness (log ratio)” value: ≤ -4.2 for the first, ≤ -4.2 for the second.

First: U6G A40U U56A C93U A106C
Second: C35U C85U
The “polymerase ribozyme fitness (log ratio)” value of the first is lower: -1.92 for the first, -0.375 for the second.

Going from A16U A30C A47G G58A U111A to C54U G94C, the “polymerase ribozyme fitness (log ratio)” value rises from ≤ -4.2 to -1.15.

Going from A28G U31G C36A U56A C95A G141C to A41C G94A U104G A113C C116G, the “polymerase ribozyme fitness (log ratio)” value falls from -3.69 to ≤ -4.2.

A60C C87A A98U and U7C G50A G84U C87A U151A cannot be ordered by “polymerase ribozyme fitness (log ratio)” value: ≤ -4.2 for the first, ≤ -4.2 for the second.

Compared with U6G A37C C51G G74C A98U C103A C118A G128U U135C U146C G152A, C18U C131A is higher in “polymerase ribozyme fitness (log ratio)” value: ≤ -4.2 for the first, -2.6 for the second.

A3C U56G C57G C116G and U15C C38A U61A C87U A122G are within 0.2 log units of each other in “polymerase ribozyme fitness (log ratio)” value: -2.89 for the first, -2.73 for the second.

First: G46C G70A C75G A119C
Second: A20G A73G C85A
The “polymerase ribozyme fitness (log ratio)” value of the first is lower: ≤ -4.2 for the first, -2.05 for the second.

First: A30C C75G C103G
Second: U55G U127A
The “polymerase ribozyme fitness (log ratio)” value of the first is lower: ≤ -4.2 for the first, -3.34 for the second.

Compared with A23U C85U, G67C A73U A91G G136A A137G is lower in “polymerase ribozyme fitness (log ratio)” value: -3.33 for the first, ≤ -4.2 for the second.

First: A47U C57A
Second: U13G A49U
The “polymerase ribozyme fitness (log ratio)” value of the first is higher: 0.807 for the first, -2.21 for the second.

Going from A16U A21G A30U G48C to G34U U82G C96G A106G U145C, the “polymerase ribozyme fitness (log ratio)” value rises from ≤ -4.2 to -3.75.

First: C63U C125U G133U
Second: G83U A97G A142U
The “polymerase ribozyme fitness (log ratio)” value of the first is lower: -3.67 for the first, -3.29 for the second.

A22C U44A C87U C103U and A17G A21U C51U U53A C79U G94A A115G cannot be ordered by “polymerase ribozyme fitness (log ratio)” value: ≤ -4.2 for the first, ≤ -4.2 for the second.

First: C5U A22C C85A
Second: A17C C36U A47G C54A C85A C118A U127G U134C U151A
The “polymerase ribozyme fitness (log ratio)” value of the first is higher: -9.25e-05 for the first, ≤ -4.2 for the second.

Going from A21U A52G C76A G81C C87G C114U A121C U146A to A19C A41C U148C, the “polymerase ribozyme fitness (log ratio)” value rises from ≤ -4.2 to -1.99.

Going from A24U C93U A142C to U45A A47U G80U U90A, the “polymerase ribozyme fitness (log ratio)” value falls from -2.21 to ≤ -4.2.

First: G46A C51G U56A G88U G141A
Second: C96A C105G
The “polymerase ribozyme fitness (log ratio)” value of the first is lower: ≤ -4.2 for the first, -1.4 for the second.

G46A U53A U77A G80A C85A A98U U102C C132G A138G and A29U A49C C63U C116U G133C U139A U146A cannot be ordered by “polymerase ribozyme fitness (log ratio)” value: ≤ -4.2 for the first, ≤ -4.2 for the second.

A21U A26C A39G A40C G50A G68C C72G U111C and C54G A91U cannot be ordered by “polymerase ribozyme fitness (log ratio)” value: ≤ -4.2 for the first, ≤ -4.2 for the second.

Going from U53A C96A C129G to G50A G58C, the “polymerase ribozyme fitness (log ratio)” value rises from -3.82 to -1.06.

U13A A39U C54G C79U G81U G94U U139C G140U and A23G U31A G58C G70C C93G A107G cannot be ordered by “polymerase ribozyme fitness (log ratio)” value: ≤ -4.2 for the first, ≤ -4.2 for the second.

First: A22U U102G
Second: A24U A29G A52G A91U G126U U144G
The “polymerase ribozyme fitness (log ratio)” value of the first is higher: -2.64 for the first, ≤ -4.2 for the second.

Going from U6G G59C to A40C G42A A52C G94C C99U, the “polymerase ribozyme fitness (log ratio)” value falls from 0.358 to ≤ -4.2.

C87A C96U C99G U111C C125A and A21U U33G C72A C95U A122U cannot be ordered by “polymerase ribozyme fitness (log ratio)” value: ≤ -4.2 for the first, ≤ -4.2 for the second.

G71A C87G C93A C95G and C54U U55G G58A A64U G88A C95G U127A cannot be ordered by “polymerase ribozyme fitness (log ratio)” value: ≤ -4.2 for the first, ≤ -4.2 for the second.

First: G83U G143U
Second: A26U A39C U45A A60C U61G G83C U102C U111G
The “polymerase ribozyme fitness (log ratio)” value of the first is higher: -1.68 for the first, ≤ -4.2 for the second.

With A40U U61A C79A U104G the “polymerase ribozyme fitness (log ratio)” value was ≤ -4.2.
